Experimental data taken from paper PMC2835468 (Matrix biology : journal of the International Society for …, 2009).

Legend:
[1] = target: T1, ADAMTS5-5 (human ADAMTS-5, catalytic and disintegrin domain, C-terminal FLAG-tag) (human, UniProt Q9UNA0 262-566); assay: enzyme inhibition kinetics
T1 sequence (looked up): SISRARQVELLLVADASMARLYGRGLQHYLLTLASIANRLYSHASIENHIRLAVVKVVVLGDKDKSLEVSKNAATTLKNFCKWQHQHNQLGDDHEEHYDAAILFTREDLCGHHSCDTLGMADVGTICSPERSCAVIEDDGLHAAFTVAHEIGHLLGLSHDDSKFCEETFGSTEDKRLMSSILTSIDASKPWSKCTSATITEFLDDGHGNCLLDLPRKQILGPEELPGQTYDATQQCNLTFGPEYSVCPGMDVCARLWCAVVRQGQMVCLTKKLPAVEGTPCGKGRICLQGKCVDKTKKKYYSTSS

[2] = target: T2, ADAMTS5-1 (full-length human ADAMTS-5, C-terminal FLAG-tag) (human, UniProt Q9UNA0 262-930); assay: enzyme inhibition kinetics
T2 sequence (looked up): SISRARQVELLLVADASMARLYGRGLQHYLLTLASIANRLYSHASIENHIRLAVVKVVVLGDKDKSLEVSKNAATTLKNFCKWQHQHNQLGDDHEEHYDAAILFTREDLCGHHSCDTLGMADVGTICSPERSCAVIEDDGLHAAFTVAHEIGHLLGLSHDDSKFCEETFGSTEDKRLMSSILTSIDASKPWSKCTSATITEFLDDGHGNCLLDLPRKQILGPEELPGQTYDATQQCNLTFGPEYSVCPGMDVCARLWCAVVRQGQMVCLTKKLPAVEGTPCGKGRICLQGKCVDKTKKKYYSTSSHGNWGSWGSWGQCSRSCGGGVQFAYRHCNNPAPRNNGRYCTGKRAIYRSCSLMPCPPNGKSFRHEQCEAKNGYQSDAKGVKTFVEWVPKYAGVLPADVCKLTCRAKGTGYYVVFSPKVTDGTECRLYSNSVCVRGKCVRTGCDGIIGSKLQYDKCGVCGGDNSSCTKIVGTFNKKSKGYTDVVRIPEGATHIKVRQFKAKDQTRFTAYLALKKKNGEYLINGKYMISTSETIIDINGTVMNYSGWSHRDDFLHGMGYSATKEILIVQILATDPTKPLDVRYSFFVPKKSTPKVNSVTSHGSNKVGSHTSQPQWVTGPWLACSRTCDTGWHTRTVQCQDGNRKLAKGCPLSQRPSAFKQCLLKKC

Ki [1]: 1.89 nM
Ki [2]: 0.7 nM
B1: FLAG-tagged glycosylated human TIMP-3 (full-length tissue inhibitor of metalloproteinases 3), expressed in HEK293 (natural protein, UniProt P35625 24-211, looked up)
chain: CTCSPSHPQDAFCNSDIVIRAKVVGKKLVKEGPFGTLVYTIKQMKMYRGFTKMPHVQYIHTEASESLCGLKLEVNKYQYLLTGRVYDGKMYTGLCNFVERWDQLTLSQRKGLNYRYHLGCNCKIKSCYYLPCFVTSKNECLWTDMLSNFGYPGYQSKHYACIRQKGGYCSWYRGWAPPDKSIINATDP
modifications: glycosylated (only the 27 kDa glycosylated form remained after purification; single N-glycosylation site in the C-terminal domain)
